These results are taken from patent US20120122214A1.

This assay deals with bovine serum albumin (bovine) (UniProt P02769). As to the kind of experiment: flow cytometry; iPS-MP in suspension with control fluorescent particles coated with only albumin, 37° C., 90 minutes. Background: In flow cytometry, cells or beads pass a laser one at a time.
Chain of bovine serum albumin (bovine) (P02769 25-607 limits assumed): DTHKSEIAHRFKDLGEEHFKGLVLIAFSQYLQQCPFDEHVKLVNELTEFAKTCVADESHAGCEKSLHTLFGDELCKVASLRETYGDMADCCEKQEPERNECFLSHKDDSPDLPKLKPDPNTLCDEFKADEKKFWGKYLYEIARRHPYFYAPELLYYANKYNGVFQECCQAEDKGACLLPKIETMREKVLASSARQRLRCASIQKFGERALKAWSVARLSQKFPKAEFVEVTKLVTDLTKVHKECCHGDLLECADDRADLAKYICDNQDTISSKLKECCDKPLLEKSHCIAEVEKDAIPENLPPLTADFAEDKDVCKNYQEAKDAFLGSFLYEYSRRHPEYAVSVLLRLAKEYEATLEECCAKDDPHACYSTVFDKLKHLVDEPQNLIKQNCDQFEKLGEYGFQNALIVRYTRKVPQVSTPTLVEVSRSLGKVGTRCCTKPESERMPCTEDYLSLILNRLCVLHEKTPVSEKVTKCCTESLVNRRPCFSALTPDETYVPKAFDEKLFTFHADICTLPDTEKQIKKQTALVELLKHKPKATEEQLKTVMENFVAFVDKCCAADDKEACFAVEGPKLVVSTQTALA

“single-chain antibody (scFv) recognizing human β-amyloid peptide, derived from mouse hybridoma clone 3D6, fused to mouse IgG2a Fc portion and mouse Fc receptor (FcγRI) trans-cell membrane-cytoplasm portion, expressed on iPS-MP” displayed a mean fluorescence intensity of 781 and a percent of cells bound to the beads of 25.5%.
